{"source": "patent US20160009806A1", "about": "(Seagen, published 2016)", "binders": {"B1": {"name": "murine 15H3 monoclonal antibody (antibody, V domains shown)", "VH": "EVQLQQSGPELVKPGASVKISCKASGYSFSGYFMNWVKQSHGQSLEWIGLINPYNGDSFYNQKFKGKATLTVQKSSSTAHMELQSLTSEDSAVFYCVRGLRRDFDYWGQGTPLTVSS", "VL": "not shown", "notes": "Murine hybridoma antibody; also called m15H3; mouse 15H3"}, "B2": {"name": "humanized 15H3 antibody HBLC (antibody, V domains shown)", "VH": "QVQLVQSGAEVKKPGASVKVSCKASGYSFSGYFMNWVRQAPGQGLEWMGLINPYNGDSFYNQKFKGRVTMTRDTSTSTVYMELSSLRSEDTAVYYCARGLRRDFDYWGQGTLVTVSS", "VL": "DVVMTQSPLSLPVTLGQPASISCKSSQSLLDSDGKTYLNWLFQRPGQSPRRLIYLVSELDSGVPDRFSGSGSGTDFTLKISRVEAEDVGVYYCWQGTHFPRTFGGGTKLEIKR", "notes": "Only variable regions are tied to the construct; also called h15H3 (HBLC); h15H3-1"}, "B3": {"name": "humanized 15H3 antibody HTLC (antibody, V domains shown)", "VH": "B2 VH with D73Q, A97V", "VL": "B2 VL", "notes": "Only variable regions are tied to the construct; also called h15H3 (HTLC); h15H3-3"}}, "key": {"[1]": {"target": "T1, integrin αvβ5 on the parental line 293F:vector (human, UniProt P06756 31-1048; P18084 24-799)", "T1 construct": "whole, on cells; Negative control cells; also called HEK293F:vector", "T1 sequence (P06756 31-1048, chain 1 of 2)": "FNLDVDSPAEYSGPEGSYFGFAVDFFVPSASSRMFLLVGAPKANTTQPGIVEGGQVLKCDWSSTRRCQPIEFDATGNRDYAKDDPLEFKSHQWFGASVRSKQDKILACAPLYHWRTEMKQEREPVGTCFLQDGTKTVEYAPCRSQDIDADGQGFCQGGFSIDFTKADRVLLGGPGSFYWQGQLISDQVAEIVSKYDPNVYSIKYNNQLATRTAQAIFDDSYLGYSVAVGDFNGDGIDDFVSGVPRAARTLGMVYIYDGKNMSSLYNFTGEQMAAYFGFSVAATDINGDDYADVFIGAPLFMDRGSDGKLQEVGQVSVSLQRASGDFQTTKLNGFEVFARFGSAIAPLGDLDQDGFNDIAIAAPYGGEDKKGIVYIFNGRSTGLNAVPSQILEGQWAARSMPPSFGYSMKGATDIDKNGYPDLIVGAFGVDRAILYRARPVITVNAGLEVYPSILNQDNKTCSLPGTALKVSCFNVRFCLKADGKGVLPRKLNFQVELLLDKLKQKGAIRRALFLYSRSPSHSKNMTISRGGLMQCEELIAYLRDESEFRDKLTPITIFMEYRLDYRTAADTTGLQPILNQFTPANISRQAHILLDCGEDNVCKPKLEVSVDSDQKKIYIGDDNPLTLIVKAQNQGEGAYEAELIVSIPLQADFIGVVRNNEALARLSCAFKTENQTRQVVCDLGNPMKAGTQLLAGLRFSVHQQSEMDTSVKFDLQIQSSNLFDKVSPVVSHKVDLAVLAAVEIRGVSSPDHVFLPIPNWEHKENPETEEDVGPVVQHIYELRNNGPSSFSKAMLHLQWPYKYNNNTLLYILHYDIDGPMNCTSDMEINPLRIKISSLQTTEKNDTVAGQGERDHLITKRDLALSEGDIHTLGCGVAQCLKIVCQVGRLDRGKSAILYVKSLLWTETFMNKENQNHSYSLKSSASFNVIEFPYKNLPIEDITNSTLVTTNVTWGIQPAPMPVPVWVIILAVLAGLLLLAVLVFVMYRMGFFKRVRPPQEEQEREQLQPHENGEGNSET", "T1 sequence (P18084 24-799, chain 2 of 2)": "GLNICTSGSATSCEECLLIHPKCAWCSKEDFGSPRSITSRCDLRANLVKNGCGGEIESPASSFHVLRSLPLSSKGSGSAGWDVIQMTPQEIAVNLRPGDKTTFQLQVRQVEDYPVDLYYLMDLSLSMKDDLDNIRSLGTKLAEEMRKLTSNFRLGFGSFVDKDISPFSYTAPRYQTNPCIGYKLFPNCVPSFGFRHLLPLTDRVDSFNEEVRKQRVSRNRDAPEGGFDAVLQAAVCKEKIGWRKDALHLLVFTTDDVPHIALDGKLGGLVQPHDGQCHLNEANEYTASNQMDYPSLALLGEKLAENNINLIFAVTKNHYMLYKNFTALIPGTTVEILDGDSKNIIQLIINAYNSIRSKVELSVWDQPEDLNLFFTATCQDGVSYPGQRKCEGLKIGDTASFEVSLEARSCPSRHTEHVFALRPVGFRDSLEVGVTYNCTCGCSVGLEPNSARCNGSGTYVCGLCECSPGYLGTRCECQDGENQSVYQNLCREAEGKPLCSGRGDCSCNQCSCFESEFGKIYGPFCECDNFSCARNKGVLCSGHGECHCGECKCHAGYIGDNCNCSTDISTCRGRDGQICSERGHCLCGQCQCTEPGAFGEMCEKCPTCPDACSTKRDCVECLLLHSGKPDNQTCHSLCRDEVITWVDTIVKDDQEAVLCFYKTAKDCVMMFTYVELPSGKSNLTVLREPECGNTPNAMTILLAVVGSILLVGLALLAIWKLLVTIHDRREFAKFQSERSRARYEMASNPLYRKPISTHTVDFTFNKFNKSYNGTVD", "experiment": "FMAT and FACS binding on cells"}, "recombinant αvβ3": {"target": "T2, recombinant αvβ3 (human, UniProt P06756 31-992; P05106 27-718)", "T2 construct": "Bought from R&D Systems; species read from 'recombinant human αvβ6, αvβ3 and αvβ8'", "experiment": "ELISA, integrin coated at 1 ug/ml, biotinylated antibody", "experimental": "(§1) 96-well Maxisorb plates (Nunc) were coated overnight at 4° C. with 1 ug/ml of recombinant human αvβ6, αvβ3 and αvβ8 diluted in PBS. Plates were washed in PBS with 0.05% Tween 20 (PBS-T). Wash buffer was removed and plates were blocked for 30 minutes at room temperature in TBS blocking buffer (TBS plus 1 mM MnCl₂, 0.05% Tween 20, 1% BSA). Plates were washed and then incubated for 1 hour with biotinylated antibody (m15H3 or h15H3) diluted in TBS blocking buffer at concentrations that ranged from 4.6 ng/m1-10 ug/ml. Plates were washed, incubated for 1 hour with 1 ug/ml of HRP-streptavidin, washed, and then incubated with TMB substrate for 10 minutes. The reaction was stopped with 1 M H₂SO₄. Absorbance at 450 nm was read using a Fusion HT plate reader (Perkin Elmer, Waltham, Mass.).\n(§2) BALB/c mice were immunized three times with intraperitoneal injections of ˜5×10⁶ 3 T3:huβ6 transfectants. Three days prior to fusion, mice received a final injection of purified recombinant human αvβ6 that was given intravenously (6 ug) and intraperitoneally (30 ug). Lymphocytes harvested from spleen and lymph nodes were fused to P3X63Ag8.653 myeloma cells using polyethylene glycol. Fused cells were recovered overnight in hybridoma growth media (IMDM containing 4 mM glutamine, 10% Fetal Clone I, 10% Cloning Factor and Penicillin/Streptomycin). […] The plates were read in an FMAT 8200 (Applied Biosystems)."}, "recombinant αvβ8": {"target": "T3, recombinant αvβ8 (human, UniProt P06756 31-992; P26012 43-684)", "T3 construct": "Bought from R&D Systems; species read from 'recombinant human αvβ6, αvβ3 and αvβ8'", "experiment": "ELISA, integrin coated at 1 ug/ml, biotinylated antibody", "experimental": "as §1, §2"}, "[2]": {"target": "T4, human integrin αvβ6 on cells (human, UniProt P06756 31-1048; P18564 22-788)", "T4 construct": "whole, on cells; also called HEK293F:huβ6", "T4 sequence (P06756 31-1048, chain 1 of 2)": "as the sequence (P06756 31-1048, chain 1 of 2) above", "T4 sequence (P18564 22-788, chain 2 of 2)": "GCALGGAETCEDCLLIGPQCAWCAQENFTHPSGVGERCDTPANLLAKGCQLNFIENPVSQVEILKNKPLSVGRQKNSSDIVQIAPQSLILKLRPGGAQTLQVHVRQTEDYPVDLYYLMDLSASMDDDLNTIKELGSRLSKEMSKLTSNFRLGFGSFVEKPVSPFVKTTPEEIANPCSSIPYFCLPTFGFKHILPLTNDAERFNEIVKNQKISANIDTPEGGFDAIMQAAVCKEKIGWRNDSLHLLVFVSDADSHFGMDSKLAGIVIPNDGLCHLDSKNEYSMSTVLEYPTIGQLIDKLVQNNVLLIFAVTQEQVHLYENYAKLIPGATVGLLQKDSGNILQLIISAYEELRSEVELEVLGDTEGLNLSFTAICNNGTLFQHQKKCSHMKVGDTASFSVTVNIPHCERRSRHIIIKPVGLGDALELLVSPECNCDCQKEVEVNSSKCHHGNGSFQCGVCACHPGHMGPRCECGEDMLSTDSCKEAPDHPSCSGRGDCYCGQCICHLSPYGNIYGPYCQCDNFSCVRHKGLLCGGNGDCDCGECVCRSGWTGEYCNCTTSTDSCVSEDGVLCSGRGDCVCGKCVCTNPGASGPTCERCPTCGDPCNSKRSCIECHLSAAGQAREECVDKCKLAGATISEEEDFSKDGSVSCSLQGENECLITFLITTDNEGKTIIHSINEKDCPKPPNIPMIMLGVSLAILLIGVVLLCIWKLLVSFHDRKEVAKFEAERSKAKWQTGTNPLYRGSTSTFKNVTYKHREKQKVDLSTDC", "experiment": "saturation binding of biotinylated antibody, flow cytometry on 293F:huβ6 cells (apparent Kd)", "experimental": "(§3) 0.25-0.5×10⁶ antigen expressing cells were aliquoted per well into a 96-well v-bottom plate. m15H3, h15H3 (HBLC) and h15H3 (HTLC) were directly labeled with equivalent levels of biotin and added to cells at concentrations ranging from 0.1 pM-150 nM. Cells were incubated on ice for 30 minutes, washed three times in FACS buffer (PBS, 2% fetal bovine serum, 1 mM MgCl₂, 1 mM CaCl₂, 0.02% NaN₃), incubated on ice for 45 minutes with PE conjugated streptavidin (0.5 ug/ml) in FACS buffer, washed three times and resuspended in FACS buffer. Binding was detected using a Becton Dickinson Biosciences FACSCalibur (San Jose, Calif.). The apparent Kd was calculated using GraphPad Software (LaJolla, Calif.)."}, "[3]": {"target": "T5, rat integrin αvβ6 on NBT-II bladder carcinoma cells (rat, UniProt F1LZX9 31-1043; Q6AYF4 22-787)", "T5 construct": "whole, on cells; Endogenous αvβ6 of rat NBT-II cells; also called rat αvβ6; rat NBT-II", "experiment": "saturation binding of biotinylated antibody, flow cytometry on rat NBT-II cells (apparent Kd)", "experimental": "as §3\nThe KD for the murine αvβ6 monoclonal antibody 15H3 antibody and select humanized version thereof was determined for human, cyno, rat, and mouse. […] The genetically engineered cell lines express endogenous αv which pairs with the recombinant β6 chain to produce a heterodimeric receptor composed of endogenous αv and recombinant β6. The affinity for rat αvβ6 was determined using rat NBT-II bladder carcinoma cells, which expression endogenous αvβ6."}, "[4]": {"target": "T6, cynomolgus integrin αvβ6 on 293F:cynoβ6 cells (human; cynomolgus, UniProt P06756 31-1048; A0A2K5TZ36 22-787)", "T6 construct": "whole, on cells; also called HEK293F:cynoβ6", "experiment": "saturation binding of biotinylated antibody, flow cytometry on 293F:cynoβ6 cells (apparent Kd)", "experimental": "as §3"}, "[5]": {"target": "T7, mouse integrin αvβ6 on FDC-P1:muβ6 cells (mouse, UniProt P43406 31-1044; Q9Z0T9 22-787)", "T7 construct": "whole, on cells; Heterodimer of endogenous mouse αv and recombinant mouse β6", "T7 sequence (P43406 31-1044, chain 1 of 2)": "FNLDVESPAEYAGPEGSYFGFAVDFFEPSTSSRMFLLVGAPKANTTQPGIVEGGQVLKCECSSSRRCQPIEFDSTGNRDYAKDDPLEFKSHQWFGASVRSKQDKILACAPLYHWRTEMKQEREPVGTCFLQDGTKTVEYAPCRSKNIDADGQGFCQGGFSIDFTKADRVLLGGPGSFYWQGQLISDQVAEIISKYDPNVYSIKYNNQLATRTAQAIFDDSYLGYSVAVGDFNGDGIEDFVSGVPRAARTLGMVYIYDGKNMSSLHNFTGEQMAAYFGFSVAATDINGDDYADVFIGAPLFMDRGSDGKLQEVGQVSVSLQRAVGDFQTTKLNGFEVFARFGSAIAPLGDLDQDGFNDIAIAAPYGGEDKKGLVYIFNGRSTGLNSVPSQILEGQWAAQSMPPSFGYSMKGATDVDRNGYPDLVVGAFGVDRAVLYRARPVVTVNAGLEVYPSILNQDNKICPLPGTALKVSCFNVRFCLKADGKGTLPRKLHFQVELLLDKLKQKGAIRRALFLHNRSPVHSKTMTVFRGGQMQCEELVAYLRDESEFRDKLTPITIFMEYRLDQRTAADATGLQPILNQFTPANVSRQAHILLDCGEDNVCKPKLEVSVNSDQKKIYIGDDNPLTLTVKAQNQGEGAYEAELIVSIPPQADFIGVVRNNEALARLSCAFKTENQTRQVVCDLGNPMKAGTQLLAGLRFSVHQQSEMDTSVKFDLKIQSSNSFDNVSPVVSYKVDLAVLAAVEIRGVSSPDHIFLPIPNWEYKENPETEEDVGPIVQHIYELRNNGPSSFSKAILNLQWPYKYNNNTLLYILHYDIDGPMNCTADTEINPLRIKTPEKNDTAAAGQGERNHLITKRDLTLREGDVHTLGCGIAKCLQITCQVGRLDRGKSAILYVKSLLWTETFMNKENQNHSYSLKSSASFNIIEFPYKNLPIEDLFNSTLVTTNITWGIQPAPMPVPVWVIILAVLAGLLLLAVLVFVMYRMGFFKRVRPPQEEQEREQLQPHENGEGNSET", "T7 sequence (Q9Z0T9 22-787, chain 2 of 2)": "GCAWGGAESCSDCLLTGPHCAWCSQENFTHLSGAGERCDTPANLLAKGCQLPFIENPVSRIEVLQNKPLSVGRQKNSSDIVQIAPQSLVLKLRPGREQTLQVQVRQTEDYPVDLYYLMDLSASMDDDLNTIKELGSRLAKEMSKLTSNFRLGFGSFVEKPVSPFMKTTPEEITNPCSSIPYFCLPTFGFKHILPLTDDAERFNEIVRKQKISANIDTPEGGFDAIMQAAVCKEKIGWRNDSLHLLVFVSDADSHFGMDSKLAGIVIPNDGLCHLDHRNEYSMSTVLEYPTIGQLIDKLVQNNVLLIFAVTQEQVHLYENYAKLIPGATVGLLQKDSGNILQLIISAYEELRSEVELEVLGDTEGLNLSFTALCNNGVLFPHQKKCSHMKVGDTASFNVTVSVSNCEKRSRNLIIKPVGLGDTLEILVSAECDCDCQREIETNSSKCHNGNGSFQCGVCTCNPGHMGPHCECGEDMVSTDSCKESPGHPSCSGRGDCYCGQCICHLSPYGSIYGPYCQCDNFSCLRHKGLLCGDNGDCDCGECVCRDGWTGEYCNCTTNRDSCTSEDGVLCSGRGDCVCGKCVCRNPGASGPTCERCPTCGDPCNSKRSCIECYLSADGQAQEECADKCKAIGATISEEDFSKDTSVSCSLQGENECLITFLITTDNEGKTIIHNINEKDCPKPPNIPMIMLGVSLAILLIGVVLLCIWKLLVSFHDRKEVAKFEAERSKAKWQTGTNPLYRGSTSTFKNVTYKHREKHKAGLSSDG", "experiment": "saturation binding of biotinylated antibody, flow cytometry on FDC-P1:muβ6 cells (apparent Kd)", "experimental": "as §3"}, "[6]": {"target": "T4, human integrin αvβ6 on cells", "experiment": "competition binding, flow cytometry on 293F cells expressing αvβ6; competitor 2 nM AlexaFluor-647 m15H3", "experimental": "1×10⁵ antigen expressing cells were aliquoted in each well of a 96-well v-bottom plate on ice. […] Cells were pelleted and washed 3 times with PBS. The cells were pelleted and resuspended in 125 uL of PBS/BSA. Fluorescence was analyzed by flow cytometery, using percent of saturated fluorescent signal to determine percent labeled murine 15H3 bound and to subsequently extrapolate the EC50 by fitting the data to a sigmoidal dose-response curve with variable slope."}}, "note": "Residue numbers refer to the chain shown, from its start.", "data": [{"binder": "B1", "values": [{"measurement": "binding result", "setting": "[1]", "value": "no binding"}, {"measurement": "binding result", "setting": "recombinant αvβ3", "value": "no binding (tested: 4.6 ng/ml-10 ug/ml)"}, {"measurement": "binding result", "setting": "recombinant αvβ8", "value": "no binding (tested: 4.6 ng/ml-10 ug/ml)"}, {"measurement": "Kd", "setting": "[2]", "value": 0.8, "unit": "nM"}, {"measurement": "Kd", "setting": "[3]", "value": 0.2, "unit": "nM"}, {"measurement": "Kd", "setting": "[4]", "value": 1, "unit": "nM"}, {"measurement": "Kd", "setting": "[5]", "value": 0.2, "unit": "nM"}]}, {"binder": "B2", "values": [{"measurement": "Kd", "setting": "[2]", "value": 1.4, "unit": "nM"}, {"measurement": "Kd", "setting": "[4]", "value": 1.6, "unit": "nM"}, {"measurement": "Kd", "setting": "[5]", "value": 0.6, "unit": "nM"}, {"measurement": "EC50", "setting": "[6]", "value": 8.14, "unit": "nM"}]}, {"binder": "B3", "values": [{"measurement": "Kd", "setting": "[2]", "value": 1.2, "unit": "nM"}, {"measurement": "Kd", "setting": "[3]", "value": 0.4, "unit": "nM"}, {"measurement": "Kd", "setting": "[4]", "value": 1.5, "unit": "nM"}, {"measurement": "Kd", "setting": "[5]", "value": 0.3, "unit": "nM"}, {"measurement": "EC50", "setting": "[6]", "value": 3.7, "unit": "nM"}]}]}
